Our source for the protein stability index values is the supplement of paper PMC10724198.

± gives the standard deviation of the averaged measurements.

The data set has as its system Saccharomyces cerevisiae. The data set is described as follows: protein stability index of tFT-peptide fusion (C-terminal peptide) (PSI (0-1 scale)); higher = more stable (slower turnover). The settings on record: temperature: 30 C. Here is the method:
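MPS profiling in S. cerevisiae of the yeast C-terminome library: the last 12 aa of each annotated ORF are fused to the C-terminus of a sfGFP-mCherry timer, after a GGGS linker. Cells are FACS-sorted into 8 mCherry/sfGFP bins and deep-sequenced. PSI runs from 0 (unstable) to 1 (stable); wild type and das1Δ backgrounds, two technical replicates each.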

The mark [1] stands for this setting: genetic background: das1 deletion.

Turning to “DTCKSVLYCSTS [YMR193C-A C-terminal 12 aa]”, the protein stability index was 0.694 ± 0.022 under setting [1] and 0.65 ± 0.0067 (genetic background: wild type).
For DTHTNEIIKKEI [HRQ1 C-terminal 12 aa], the protein stability index runs as follows: under setting [1], 0.6984 ± 0.004; (genetic background: wild type) 0.695 ± 0.032.
Take DVFEEIGYSMKD [SAE3 C-terminal 12 aa]: the protein stability index under setting [1] was determined as 0.715 ± 0.0034 and the protein stability index (genetic background: wild type) turned out to be 0.789 ± 0.041.
Consider DVHDDVESDDEI [ALF1 C-terminal 12 aa], for which the protein stability index reads like this: under setting [1], 0.6961 ± 0.0065; (genetic background: wild type) 0.7005 ± 0.0059.
For DVKPQENGNDSS [REG1 C-terminal 12 aa], the protein stability index worked out at 0.71 ± 0.014 under setting [1] and 0.705 ± 0.037 (genetic background: wild type).
Turning to DWEAIDAQTIKL [FAT1 C-terminal 12 aa], the protein stability index reads like this: under setting [1], 0.746 ± 0.0075; (genetic background: wild type) 0.768 ± 0.021.
Regarding DYKKFIEDVLRQ [MLC1 C-terminal 12 aa], the protein stability index was 0.696 ± 0.033 under setting [1] and 0.702 ± 0.04 (genetic background: wild type).
On to EAELEEDWGMYG [YBR062C C-terminal 12 aa], for which the protein stability index reads like this: under setting [1], 0.7114 ± 0.0068; (genetic background: wild type) 0.7097 ± 0.0017.
In the case of EANNLLNIIKGN [MRP51 C-terminal 12 aa], the protein stability index is, setting by setting: under setting [1], 0.6795 ± 0.0042; (genetic background: wild type) 0.294 ± 0.035.
Taken in the same sequence, the figures for EAQLSRSEVLLV [COS2 C-terminal 12 aa] were 0.648 ± 0.0028 and 0.6242 ± 0.0027.
On to EAQLTRKQAPPV [COS9 C-terminal 12 aa], for which the protein stability index came out at 0.7035 ± 0.004 under setting [1] and 0.699 ± 0.015 (genetic background: wild type).
For EATYKVLQQLHK [ADE8 C-terminal 12 aa], in that order: 0.71 ± 0.012 and 0.7224 ± 0.00099.
As to EAVYELAKMSLA [MYG1 C-terminal 12 aa], the protein stability index runs as follows: under setting [1], 0.703 ± 0.025; (genetic background: wild type) 0.6777 ± 0.0052.
With ECDGITVPEKLT [MSC6 C-terminal 12 aa], the protein stability index runs as follows: under setting [1], 0.682 ± 0.012; (genetic background: wild type) 0.708 ± 0.011.
For the sequence “ECRARKASSNRS [YGR109W-A C-terminal 12 aa]”, the protein stability index turned out to be 0.681 ± 0.0073 under setting [1] and 0.707 ± 0.024 (genetic background: wild type).
EDAEKRADEMDD [SRM1 C-terminal 12 aa]: the protein stability index was found to be 0.691 ± 0.034 under setting [1] and 0.675 ± 0.033 (genetic background: wild type).
Take EECYLHSESFGY [FRE7 C-terminal 12 aa]: the protein stability index is, setting by setting: under setting [1], 0.68 ± 0.028; (genetic background: wild type) 0.664 ± 0.028.
In turn, EEFINKLVKSMN [RPL7A C-terminal 12 aa] displayed a protein stability index under setting [1] of 0.698 ± 0.029 and a protein stability index (genetic background: wild type) of 0.705 ± 0.097.
For EEIVGRHSDSAT [YAP6 C-terminal 12 aa], in that order: 0.6926 ± 0.0035 and 0.69 ± 0.011.
As to EEKKKKKIAESK [TIM50 C-terminal 12 aa], the protein stability index stood at 0.681 ± 0.06 under setting [1] and 0.64 ± 0.044 (genetic background: wild type).
Regarding EELKKLSNPDMN [CUP9 C-terminal 12 aa], the protein stability index is, setting by setting: under setting [1], 0.713 ± 0.059; (genetic background: wild type) 0.686 ± 0.0076.
For EETEAQAEPVEA [RPS3 C-terminal 12 aa], the protein stability index by setting is: under setting [1], 0.687 ± 0.013; (genetic background: wild type) 0.663 ± 0.021.
Taken in the same sequence, the figures for EFEILDAKKEKD [PIM1 C-terminal 12 aa] were 0.699 ± 0.0047 and 0.681 ± 0.056.
Regarding EFKCMSVITAQQ [SEH1 C-terminal 12 aa], the protein stability index is 0.67622 ± 0.00052 under setting [1] and 0.687 ± 0.025 (genetic background: wild type).
As to EFMKTNTGSKKV [CCR4 C-terminal 12 aa], the protein stability index runs as follows: under setting [1], 0.703 ± 0.027; (genetic background: wild type) 0.677 ± 0.03.
For EFTDEWFKEHSS [STH1 C-terminal 12 aa], in that order: 0.757 ± 0.0035 and 0.719 ± 0.0073.
In the case of EGGDLEYQHVKI [YCR043C C-terminal 12 aa], the protein stability index is, setting by setting: under setting [1], 0.691 ± 0.0077; (genetic background: wild type) 0.682 ± 0.03.
For EGIFPANYVRVS [YSC84 C-terminal 12 aa], the protein stability index amounted to 0.663 ± 0.01 under setting [1] and 0.673 ± 0.0097 (genetic background: wild type).
On to “EGPRGETIVERF [YJL047C-A C-terminal 12 aa]”, for which the protein stability index came to 0.698 ± 0.008 under setting [1] and 0.6955 ± 0.0027 (genetic background: wild type).
As for EGVGCRYPVVLI [YDR467C C-terminal 12 aa], the protein stability index came to 0.7038 ± 0.0063 under setting [1] and 0.666 ± 0.019 (genetic background: wild type).
As for EHKGSIEAGFTS [CSS2 C-terminal 12 aa], the protein stability index is 0.698 ± 0.023 under setting [1] and 0.715 ± 0.025 (genetic background: wild type).
For EHRNIEWEKKTA [POL4 C-terminal 12 aa], the protein stability index by setting is: under setting [1], 0.7 ± 0.014; (genetic background: wild type) 0.694 ± 0.054.
For EINSDFIENFEE [MSH4 C-terminal 12 aa], the protein stability index was 0.701 ± 0.017 under setting [1] and 0.699 ± 0.046 (genetic background: wild type).
For EKEFTGNSQSEK [NMA111 C-terminal 12 aa], in that order: 0.6859 ± 0.006 and 0.742 ± 0.039.
With EKKKNPYWYYQW [GEP3 C-terminal 12 aa], the protein stability index under setting [1] is 0.735 ± 0.009 and the protein stability index (genetic background: wild type) was found to be 0.673 ± 0.025.
Consider EKQQRRNMKNAL [RRS1 C-terminal 12 aa], for which the protein stability index under setting [1] was determined as 0.704 ± 0.034 and the protein stability index (genetic background: wild type) came out at 0.703 ± 0.01.
For EKTRKNISKFFS [CPR7 C-terminal 12 aa], in that order: 0.713 ± 0.022 and 0.707 ± 0.013.
Taken in the same sequence, the figures for EKVIDGSIEHSS [YNR061C C-terminal 12 aa] were 0.6642 ± 0.0044 and 0.703 ± 0.017.
Taken in the same sequence, the figures for EKVRNEGFIKNP [GPM2 C-terminal 12 aa] were 0.716 ± 0.03 and 0.702 ± 0.075.
On to ELANILESDITL [CIN1 C-terminal 12 aa], for which the protein stability index is 0.70881 ± 0.00043 under setting [1] and 0.712 ± 0.022 (genetic background: wild type).
For the sequence ELDEIAASLENL [TPM1 C-terminal 12 aa], the protein stability index is 0.7088 ± 0.0027 under setting [1] and 0.69 ± 0.01 (genetic background: wild type).
ELLCKGICKAAE [HEL1 C-terminal 12 aa]: the protein stability index under setting [1] stood at 0.6857 ± 0.0035 and the protein stability index (genetic background: wild type) was found to be 0.674 ± 0.017.
Taken in the same sequence, the figures for EMEKNKLKRKRN [YNG2 C-terminal 12 aa] were 0.668 ± 0.054 and 0.699 ± 0.014.
On to EMVKKHALNGRI [NRS1 C-terminal 12 aa], for which the protein stability index is, setting by setting: under setting [1], 0.7115 ± 0.004; (genetic background: wild type) 0.671 ± 0.025.
In the case of ENKNWSIITPSG [YBL086C C-terminal 12 aa], the protein stability index is, setting by setting: under setting [1], 0.68945 ± 7e-05; (genetic background: wild type) 0.684 ± 0.018.
For EPMESLRSTTKY [PTR2 C-terminal 12 aa], the protein stability index stood at 0.734 ± 0.022 under setting [1] and 0.697 ± 0.01 (genetic background: wild type).
For EPNGYIKNLKWT [RXT3 C-terminal 12 aa], in that order: 0.713 ± 0.023 and 0.633 ± 0.034.
Consider ERLIQQGYLQKI [PSF1 C-terminal 12 aa], for which the protein stability index was determined as 0.698 ± 0.024 under setting [1] and 0.683 ± 0.035 (genetic background: wild type).
With “ERNGWKFFFKEV [YHR137C-A C-terminal 12 aa]”, the protein stability index amounted to 0.69374 ± 0.00051 under setting [1] and 0.6597 ± 0.0014 (genetic background: wild type).
Turning to ERNKKSRPPIYK [ARL3 C-terminal 12 aa], the protein stability index stood at 0.734 ± 0.03 under setting [1] and 0.735 ± 0.09 (genetic background: wild type).
With ETLAKLREQGLM [TOM70 C-terminal 12 aa], the protein stability index is 0.6797 ± 0.0058 under setting [1] and 0.692 ± 0.015 (genetic background: wild type).
Take EVHALNRDHLVA [YHR138C C-terminal 12 aa]: the protein stability index came to 0.692 ± 0.0076 under setting [1] and 0.674 ± 0.023 (genetic background: wild type).
For EVLDQLEPQDSS [MCM6 C-terminal 12 aa], in that order: 0.699 ± 0.019 and 0.6847 ± 0.0064.
As to EYDDDSGNQGVW [GRE1 C-terminal 12 aa], the protein stability index runs as follows: under setting [1], 0.6914 ± 0.00077; (genetic background: wild type) 0.739 ± 0.049.
Turning to EYIVNVNEYGHD [YOL153C C-terminal 12 aa], the protein stability index by setting is: under setting [1], 0.6799 ± 0.0043; (genetic background: wild type) 0.678 ± 0.0079.
Take EYSKKYLTTFFQ [YEA6 C-terminal 12 aa]: the protein stability index is 0.706 ± 0.025 under setting [1] and 0.722 ± 0.03 (genetic background: wild type).
Consider FAAVSFVLGTGI [NCW1 C-terminal 12 aa], for which the protein stability index reads like this: under setting [1], 0.714 ± 0.008; (genetic background: wild type) 0.709 ± 0.017.
Taken in the same sequence, the figures for FAEYNRLSAIPV [LAM1 C-terminal 12 aa] were 0.447 ± 0.015 and 0.478 ± 0.02.
With FAGENFHHGDKL [ENO1 C-terminal 12 aa], the protein stability index runs as follows: under setting [1], 0.707 ± 0.016; (genetic background: wild type) 0.706 ± 0.0078.
FCHGAEDAWNIL [EMG1 C-terminal 12 aa]: the protein stability index reads like this: under setting [1], 0.7275 ± 0.0017; (genetic background: wild type) 0.712 ± 0.012.
Consider FCIFNNVVFPML [RRT1 C-terminal 12 aa], for which the protein stability index came out at 0.717 ± 0.011 under setting [1] and 0.7002 ± 0.0035 (genetic background: wild type).
Taken in the same sequence, the figures for FCMGVAAFVTTA [UTP21 C-terminal 12 aa] were 0.493 ± 0.013 and 0.497 ± 0.0075.
On to FDDDLTAQLYYP [TDA8 C-terminal 12 aa], for which the protein stability index worked out at 0.7291 ± 0.0033 under setting [1] and 0.744 ± 0.043 (genetic background: wild type).
Turning to FDTSAQSDRKHS [DCV1 C-terminal 12 aa], the protein stability index by setting is: under setting [1], 0.719 ± 0.011; (genetic background: wild type) 0.692 ± 0.018.
On to FEDCCRWNEKQG [HIS6 C-terminal 12 aa], for which the protein stability index reads like this: under setting [1], 0.668 ± 0.022; (genetic background: wild type) 0.694 ± 0.016.
With FENGGKLKEVDK [MDM35 C-terminal 12 aa], the protein stability index came out at 0.686 ± 0.01 under setting [1] and 0.7211 ± 0.0027 (genetic background: wild type).
On to “FFFPLFLFLYHL [YHR180W-A C-terminal 12 aa]”, for which the protein stability index under setting [1] is 0.436 ± 0.0054 and the protein stability index (genetic background: wild type) was 0.306 ± 0.0032.
